Consider 1 molecule from patent US20090241202A1 (MICROMET, published 2009).

The target in this assay is T1, human EpCAM on Kato III gastric carcinoma cells (human, UniProt P16422 24-314).
T1 sequence (looked up): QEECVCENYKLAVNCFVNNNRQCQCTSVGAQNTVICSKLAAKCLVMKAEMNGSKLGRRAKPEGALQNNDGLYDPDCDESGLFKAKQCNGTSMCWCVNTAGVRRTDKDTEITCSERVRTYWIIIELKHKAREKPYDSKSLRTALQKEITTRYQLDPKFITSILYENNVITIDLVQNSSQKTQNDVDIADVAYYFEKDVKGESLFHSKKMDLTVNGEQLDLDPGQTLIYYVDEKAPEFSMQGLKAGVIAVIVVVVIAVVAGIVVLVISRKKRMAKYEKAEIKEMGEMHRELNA
Description: cell-based or functional assay.

B1: domain-grafted Anti-EpCAM (antibody, mouse IgG2a, kappa, V domains shown)
VH: EVQLLESGGGVVQPGRSLRLSCAASGFTFSSYGMHWVRQAPGKGLEWVAVISYDGSNKYYADSVKGRFTISRDNSKNTLYLQMNSLRAEDTAVYYCAKDMGWGSGWRPYYYYGMDVWGQGTTVTVSS
VL: ELQMTQSPSSLSASVGDRVTITCRTSQSISSYLNWYQQKPGQPPKLLIYWASTRESGVPDRFSGSGSGTDFTLTISSLQPEDSATYYCQQSYDIPYTFGQGTKLEIKR
Regarding B1, the “EC50 of ADCC (lysis of Kato III target cells), unstimulated human PBMC as effector cells, E:T 20:1” value came to 2110 ng/mL and the “potency of ADCC against Anti-EpCAM, prestimulated murine NK cells as effector cells” value stood at 43.7 fold.
